Assay results reported in US20150299305A1 (Alexion, published 2015).
Positions count from the first letter of the chain named. Names and notes keep the numbering of the source. Values belong to the binder of their own block, whether it stands above or below them.

Assays:
[1] = target: T1, human complement component C5 (human, UniProt P01031 19-673; P01031 678-1676); test: SPR
T1 construct: mature; Native purified protein; also called human C5; hC5

[2] = target: T1, human complement component C5; test: SPR, pH 6.0
[3] = target: T1, human complement component C5; test: SPR, pH 7.4
complement component C1q = complement component C1q (UniProt P02745 23-245; P02746 28-253; P02747 29-245); test: biolayer interferometry
[4] = target: T2, human neonatal Fc receptor (FcRn) (human, UniProt P55899 24-297; P61769 21-119, limits assumed); test: SPR, F(ab')2 capture, pH 6.0
T2 construct: also called hFcRn; human FcRn
Description: The data were processed with a 1:1 Langmuir model using BIAevaluation 4.1 software (BIAcore AB, Uppsala, Sweden) with ‘double referencing’.

Human FcγRIIa (CD32a) [5] = target: T3, Human FcγRIIa (CD32a) (human, UniProt P12318 36-218, limits assumed); test: SPR, antibody immobilized, monomeric FcγR injected, steady state, pH 7.4
T3 construct: Bought reagent; not shown: 6x histidine tag
T3 sequence (looked up): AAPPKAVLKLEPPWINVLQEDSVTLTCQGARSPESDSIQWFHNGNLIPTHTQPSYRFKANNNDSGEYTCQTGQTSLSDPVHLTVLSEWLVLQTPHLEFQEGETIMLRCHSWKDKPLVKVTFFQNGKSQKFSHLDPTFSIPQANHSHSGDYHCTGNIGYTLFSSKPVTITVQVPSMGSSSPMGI

Human FcγRI (CD64) [6] = target: T4, Human FcγRI (CD64) (human, UniProt P12314 16-288, limits assumed); test: SPR, antibody immobilized, monomeric FcγR injected, steady state, pH 7.4; SPR, monomeric FcγR
T4 construct: Bought reagent; also called FcγR1; not shown: 6x histidine tag

[7] = target: T5, Human FcγRIIb/c (CD32b/c) (human, UniProt P31994 46-217, limits assumed); test: as above
T5 construct: Bought reagent; not shown: 6x histidine tag
T5 sequence (looked up): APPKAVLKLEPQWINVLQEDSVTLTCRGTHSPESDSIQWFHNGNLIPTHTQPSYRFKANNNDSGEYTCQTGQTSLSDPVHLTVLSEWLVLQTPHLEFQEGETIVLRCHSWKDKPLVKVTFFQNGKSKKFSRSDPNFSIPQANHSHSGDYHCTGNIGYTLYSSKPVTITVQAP

Human FcγRIIIa (CD16a) [8] = target: T6, Human FcγRIIIa (CD16a) (human, UniProt P08637 17-208, limits assumed); test: as above
T6 construct: Bought reagent; not shown: 6x histidine tag

Human FcγRIIIb (CD16b) [9] = target: T7, Human FcγRIIIb (CD16b) (human, UniProt O75015 17-200, limits assumed); test: as above
T7 construct: Bought reagent; not shown: 6x histidine tag

Human FcγRIIa (CD32a) [10] = target: T3, Human FcγRIIa (CD32a); test: ELISA, multimeric antibody immune complexes on His-tagged FcγRIIa; reference not named (IgG1 control implied)
Protocol: Microtiter plates pre-coated with Ni-NTA (Qiagen) were incubated with 50 μL/well of 6× histidine-tagged human FcγRs (FcγRI, FcγRIIa, FcγRIIb/c, FcγRIIIa or FcγRIIIb), at a receptor concentration of 5 μg/mL in PBS, overnight at 4° C. The plate was then washed 3 times with PBS/0.05% Tween-20. After washing, 50 μL of antibody complexes in PBS/0.05% Tween-20 were incubated in the plate for 60 min at room temperature (RT). After washing the plate with PBS/0.05% Tween-20, 50 μL of streptavidin-HRP (Invitrogen) in PBS/0.05% Tween-20 was added to the plate and incubated for 60 min at RT. Following this incubation and washes, 75 μL of TMB-ELISA substrate (3,3′,5,5′-tetramethylbenzidine, Thermo Scientific) was added. The reaction was stopped with 75 μL of 2 M H₂SO₄, and the absorbance read at 450 nm.
Samples were run in duplicate and data were presented as mean values. […] The absorbance at 450 nm of each concentration of antibody immune complex or in the absence of antibody immune complexes plotted as a graphical representation.

[11] = target: T5, Human FcγRIIb/c (CD32b/c); test: SPR, antibody immobilized, monomeric FcγR injected, steady state, pH 7.4
Protocol: (§1) A second flow cell was used as a reference surface. Concentrations of FcγRs diluted in running buffer (HBS-EP, pH 7.4) were injected on both cells. The surface was regenerated each cycle with 20 mM HCl, 0.01% P20. The data was analyzed using a steady state affinity model in BIAevaluation 4.1 software (BIAcore AB, Uppsala, Sweden) with ‘double referencing’.

Human FcγRIIIa (CD16a) [12] = target: T6, Human FcγRIIIa (CD16a); test: as above
Protocol: as §1

Human FcγRIIIb (CD16b) [13] = target: T7, Human FcγRIIIb (CD16b); test: as above
Protocol: as §1

Human FcγRI (CD64) [14] = target: T4, Human FcγRI (CD64); test: SPR, antibody immobilized, single cycle kinetics, pH 7.4; Table 16 cell under the head KD [µM]
Protocol: The antibody was diluted in 10 mM sodium acetate at pH 5.0 and directly immobilized on one flow cell of a CM5 chip by amine coupling. A second flow cell was used as a reference surface. Concentrations of FcγR1 diluted in running buffer (HBS-EP, pH 7.4) were injected on both cells. This assay required no regeneration. The data was analyzed using a titration kinetics 1:1 model in BIAevaluation 4.1 (Biacore AB, Uppsala, Sweden) software with ‘double referencing’.

[15] = target: T8, human hypercalcemia of malignancy peptide, amino acid residues 1-34 (human, UniProt P12272 37-70); test: immunofluorescent staining of UV-resin spot slides
T8 construct: range 1-34; Negative control material on UV-resin spot slides; also called PTHrP 1-34

mouse C5 = target: T9, mouse C5 (mouse, UniProt P06684 19-674; P06684 679-1680); test: SPR, anti-Fc capture, pH 7.4; pH 7.4
T9 construct: also called purified mouse C5
T9 sequence (P06684 19-674 limits assumed, chain 1 of 2): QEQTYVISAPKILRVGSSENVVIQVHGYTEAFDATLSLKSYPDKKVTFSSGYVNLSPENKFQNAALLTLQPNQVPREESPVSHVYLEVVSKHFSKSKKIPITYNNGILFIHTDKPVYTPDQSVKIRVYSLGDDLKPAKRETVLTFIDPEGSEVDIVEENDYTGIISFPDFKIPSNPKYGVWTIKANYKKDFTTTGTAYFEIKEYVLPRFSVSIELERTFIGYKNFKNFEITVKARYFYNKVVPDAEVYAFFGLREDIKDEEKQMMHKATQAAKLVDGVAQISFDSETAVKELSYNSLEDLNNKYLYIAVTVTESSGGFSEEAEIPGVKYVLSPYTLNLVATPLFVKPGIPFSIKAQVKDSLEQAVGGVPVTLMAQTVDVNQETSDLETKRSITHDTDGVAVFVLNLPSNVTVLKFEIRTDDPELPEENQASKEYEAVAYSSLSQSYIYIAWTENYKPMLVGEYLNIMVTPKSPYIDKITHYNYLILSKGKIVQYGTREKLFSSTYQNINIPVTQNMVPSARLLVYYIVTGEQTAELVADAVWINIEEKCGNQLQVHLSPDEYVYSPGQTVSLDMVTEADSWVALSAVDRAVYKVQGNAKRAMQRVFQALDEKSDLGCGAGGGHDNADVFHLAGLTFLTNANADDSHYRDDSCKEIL
T9 sequence (P06684 679-1680 limits assumed, chain 2 of 2): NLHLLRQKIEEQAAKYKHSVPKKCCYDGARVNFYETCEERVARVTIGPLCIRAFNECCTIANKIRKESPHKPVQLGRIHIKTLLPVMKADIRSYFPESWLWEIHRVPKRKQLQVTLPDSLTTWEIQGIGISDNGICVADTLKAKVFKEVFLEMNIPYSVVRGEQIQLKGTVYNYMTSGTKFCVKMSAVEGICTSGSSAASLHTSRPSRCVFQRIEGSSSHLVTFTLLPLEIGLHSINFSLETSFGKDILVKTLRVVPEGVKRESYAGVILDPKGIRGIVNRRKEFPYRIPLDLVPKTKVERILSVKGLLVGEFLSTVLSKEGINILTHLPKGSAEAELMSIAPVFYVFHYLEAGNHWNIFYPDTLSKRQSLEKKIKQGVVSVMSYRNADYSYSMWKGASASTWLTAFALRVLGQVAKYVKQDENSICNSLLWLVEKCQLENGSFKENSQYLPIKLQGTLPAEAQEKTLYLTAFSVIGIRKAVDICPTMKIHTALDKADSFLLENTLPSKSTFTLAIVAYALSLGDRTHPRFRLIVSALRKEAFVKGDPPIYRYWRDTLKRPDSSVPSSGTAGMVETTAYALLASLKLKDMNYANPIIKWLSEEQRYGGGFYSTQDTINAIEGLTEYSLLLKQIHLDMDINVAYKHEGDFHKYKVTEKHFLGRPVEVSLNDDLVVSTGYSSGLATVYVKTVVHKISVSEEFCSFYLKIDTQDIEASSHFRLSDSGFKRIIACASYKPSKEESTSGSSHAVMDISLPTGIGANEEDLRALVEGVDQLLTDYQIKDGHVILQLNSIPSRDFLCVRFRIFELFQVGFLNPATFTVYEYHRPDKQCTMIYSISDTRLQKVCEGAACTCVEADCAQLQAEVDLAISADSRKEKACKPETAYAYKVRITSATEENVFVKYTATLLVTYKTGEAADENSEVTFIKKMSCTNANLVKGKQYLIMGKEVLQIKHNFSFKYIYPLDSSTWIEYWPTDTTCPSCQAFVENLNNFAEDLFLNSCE
Protocol: Briefly, anti-human Fc (KPL, catalogue number: 01-10-20) diluted to 0.1 mg/mL in 10 mM sodium acetate pH 5.0, was immobilized on two flow cells of a CM5 chip for 8 minutes by amine coupling. The antibodies were diluted to 0.25 μg/mL in running buffer (HBS-EP; 0.01 M HEPES pH 7.4, 0.15 M NaCl, 3 mM EDTA, 0.005% v/v Surfactant P20; GE Life Sciences, catalogue number: BR1001-88). The diluted antibody was then injected on one flow cell followed by an injection of 6 nM mouse C5 on both cells. The second flow cell was used as a reference surface. The binding was evaluated at pH 7.4 and pH 6.0. The surface was regenerated each time with 20 mM HCl, 0.01% P20. The data was processed with a 1:1 Langmuir model using BIAevaluation 4.1 software with ‘double referencing’.

T4 sequence (P12314 16-288 limits assumed): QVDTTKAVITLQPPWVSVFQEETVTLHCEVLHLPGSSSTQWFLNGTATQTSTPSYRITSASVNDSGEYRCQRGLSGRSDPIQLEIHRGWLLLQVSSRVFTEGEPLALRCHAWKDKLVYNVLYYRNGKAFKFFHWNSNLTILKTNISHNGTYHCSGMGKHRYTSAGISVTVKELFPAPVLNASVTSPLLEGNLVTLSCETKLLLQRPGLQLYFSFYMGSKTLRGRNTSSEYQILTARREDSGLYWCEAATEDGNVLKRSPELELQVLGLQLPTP
T7 sequence (O75015 17-200 limits assumed): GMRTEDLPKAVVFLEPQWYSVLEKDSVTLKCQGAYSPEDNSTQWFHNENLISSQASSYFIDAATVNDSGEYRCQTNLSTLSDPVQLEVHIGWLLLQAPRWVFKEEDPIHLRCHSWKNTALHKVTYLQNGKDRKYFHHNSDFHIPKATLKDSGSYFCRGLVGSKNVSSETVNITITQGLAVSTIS
Sequence of complement component C1q (P02745 23-245, chain 1 of 3): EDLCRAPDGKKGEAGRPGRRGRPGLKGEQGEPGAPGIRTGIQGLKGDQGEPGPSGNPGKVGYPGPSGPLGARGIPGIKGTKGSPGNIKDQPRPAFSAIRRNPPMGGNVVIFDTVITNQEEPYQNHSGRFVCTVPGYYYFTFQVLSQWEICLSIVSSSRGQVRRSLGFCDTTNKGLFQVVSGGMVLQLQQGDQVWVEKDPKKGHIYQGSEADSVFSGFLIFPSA
Sequence of complement component C1q (P02746 28-253, chain 2 of 3): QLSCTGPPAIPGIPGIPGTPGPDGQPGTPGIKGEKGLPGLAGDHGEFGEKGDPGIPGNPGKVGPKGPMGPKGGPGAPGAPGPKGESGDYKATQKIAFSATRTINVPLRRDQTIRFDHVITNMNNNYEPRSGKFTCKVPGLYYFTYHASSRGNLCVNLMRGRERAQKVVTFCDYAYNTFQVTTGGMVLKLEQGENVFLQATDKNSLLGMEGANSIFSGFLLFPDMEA
Sequence of complement component C1q (P02747 29-245, chain 3 of 3): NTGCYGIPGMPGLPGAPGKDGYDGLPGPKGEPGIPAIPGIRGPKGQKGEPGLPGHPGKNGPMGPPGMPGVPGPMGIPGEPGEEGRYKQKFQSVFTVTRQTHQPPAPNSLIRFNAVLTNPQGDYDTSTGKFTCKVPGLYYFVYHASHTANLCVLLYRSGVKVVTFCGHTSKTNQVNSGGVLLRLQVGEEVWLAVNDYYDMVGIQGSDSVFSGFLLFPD
T6 sequence (P08637 17-208 limits assumed): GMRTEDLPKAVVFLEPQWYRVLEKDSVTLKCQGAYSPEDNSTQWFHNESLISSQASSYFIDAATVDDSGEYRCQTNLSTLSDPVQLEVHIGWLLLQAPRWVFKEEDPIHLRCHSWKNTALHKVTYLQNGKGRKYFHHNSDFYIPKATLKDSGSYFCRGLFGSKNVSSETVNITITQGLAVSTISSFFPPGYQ

ratio of KD at pH 6.0/pH 7.4 [1]: 2770
Kd [2]: 374 nM
Kd [3]: 0.135 nM
B1: EHL004 (antibody, V domains shown)
VH: QVQLVQSGAEVKKPGASVKVSCKASGYIFSNYWIQWVRQAPGQGLEWMGEILPGSGHTEYTENFKDRVTMTRDTSTSTVYMELSSLRSEDTAVYYCARYFFGSSPNWYFDVWGQGTLVTVSS
VL: DIQMTQSPSSLSASVGDRVTITCGASENIYHALNWYQQKPGKAPKLLIYGATNLADGVPSRFSGSGSGTDFTLTISSLQPEDFATYYCQNVLNTPLTFGQGTKVEIK
notes: The VH cell prints only 'S57H'

Kd (Human FcγRIIa (CD32a) [5]): 800 nM
Kd [11]: 3060 nM
Kd (Human FcγRIIIa (CD16a) [12]): 850 nM
Kd (Human FcγRIIIb (CD16b) [13]): 1890 nM
Kd (Human FcγRI (CD64) [14]): 0.123 nM
B3: h5G1.1-IgG1 (antibody)
heavy: not shown
light: DIQMTQSPSSLSASVGDRVTITCGASENIYGALNWYQQKPGKAPKLLIYGATNLADGVPSRFSGSGSGTDFTLTISSLQPEDFATYYCQNVLNTPLTFGQGTKVEIKRTVAAPSVFIFPPSDEQLKSGTASVVCLLNNFYPREAKVQWKVDNALQSGNSQESVTEQDSKDSTYSLSSTLTLSKADYEKHKVYACEVTHQGLSSPVTKSFNRGEC
notes: IgG1 isotype antibody with the same humanized variable region as eculizumab; light chain identical to that of eculizumab and BNJ441; also called h5G1.1-hG1; IgG1 isotype control

binding result [15]: no binding
B4: BNJ441-FITC (antibody, human IgG2, kappa)
heavy: QVQLVQSGAEVKKPGASVKVSCKASGHIFSNYWIQWVRQAPGQGLEWMGEILPGSGHTEYTENFKDRVTMTRDTSTSTVYMELSSLRSEDTAVYYCARYFFGSSPNWYFDVWGQGTLVTVSSASTKGPSVFPLAPCSRSTSESTAALGCLVKDYFPEPVTVSWNSGALTSGVHTFPAVLQSSGLYSLSSVVTVPSSNFGTQTYTCNVDHKPSNTKVDKTVERKCCVECPPCPAPPVAGPSVFLFPPKPKDTLMISRTPEVTCVVVDVSQEDPEVQFNWYVDGVEVHNAKTKPREEQFNSTYRVVSVLTVLHQDWLNGKEYKCKVSNKGLPSSIEKTISKAKGQPREPQVYTLPPSQEEMTKNQVSLTCLVKGFYPSDIAVEWESNGQPENNYKTTPPVLDSDGSFFLYSRLTVDKSRWQEGNVFSCSVLHEALHSHYTQKSLSLSLGK
light: B3 light
modifications: fluoresceinated (FITC); sites not stated
notes: also called fluoresceinated BNJ441

Kd (mouse C5): 4.19 nM
koff (mouse C5): 0.00109 s⁻¹
kon (mouse C5): 261000 M⁻¹ s⁻¹
B7: BHL009 (antibody, human IgG2, kappa)
heavy: QVQLQQPGAELVRPGTSVKLSCKASGYTFTSSWMHWVKQRPGQGLEWIGVIDPHDSYTNYNQKFKGKATLTVDTSSSTAYMQLSSLTSEDSAVYYCARGGGSSYNRYFDVWGTGTTVTVSSASTKGPSVFPLAPCSRSTSESTAALGCLVKDYFPEPVTVSWNSGALTSGVHTFPAVLQSSGLYSLSSVVTVPSSNFGTQTYTCNVDHKPSNTKVDKTVERKCCVECPPCPAPPVAGPSVFLFPPKPKDTLMISRTPEVTCVVVDVSQEDPEVQFNWYVDGVEVHNAKTKPREEQFNSTYRVVSVLTVLHQDWLNGKEYKCKVSNKGLPSSIEKTISKAKGQPREPQVYTLPPSQEEMTKNQVSLTCLVKGFYPSDIAVEWESNGQPENNYKTTPPVLDSDGSFFLYSRLTVDKSRWQEGNVFSCSVLHEALHSHYTQKSLSLSLGK
light: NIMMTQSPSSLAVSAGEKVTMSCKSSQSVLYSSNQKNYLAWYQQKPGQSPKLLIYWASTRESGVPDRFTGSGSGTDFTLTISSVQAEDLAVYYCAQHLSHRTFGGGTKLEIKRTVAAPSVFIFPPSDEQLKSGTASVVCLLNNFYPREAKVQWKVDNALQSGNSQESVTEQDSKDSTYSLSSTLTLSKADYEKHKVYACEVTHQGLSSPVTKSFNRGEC
notes: BHL006 with M428L, N434S in the human heavy chain constant region

Continued, binder first:

B2: BNJ441 (antibody, human IgG2, kappa)
heavy: B4 heavy
light: B3 light
notes: IgG2/G4, kappa; also called BNJ441 antibody; BNJ441 engineering batch
binding result (complement component C1q): no binding
fold increase in affinity compared to eculizumab [4]: ~10 fold
Kd (Human FcγRIIa (CD32a) [5]): 2310 nM
Kd (Human FcγRI (CD64) [6]): 3750 nM
Kd [7]: 8090 nM
Kd (Human FcγRIIIa (CD16a) [8]): 7230 nM
Kd (Human FcγRIIIb (CD16b) [9]): 3330 nM
fold weaker association (Human FcγRIIa (CD32a) [10]): 4 fold

B5: eculizumab (antibody, human IgG2, kappa)
heavy: B4 heavy with H27Y, H57S, L429M, S435N
light: B3 light
notes: Humanized anti-human C5 antibody, hybrid human IgG2/G4 constant region, human kappa light chain; also called Ec293F
binding result (complement component C1q): no binding
Kd (Human FcγRIIa (CD32a) [5]): 2580 nM
Kd [7]: 9840 nM
fold weaker association (Human FcγRIIa (CD32a) [10]): 8 fold

B6: BHL006 (antibody, human IgG2, kappa)
heavy: B7 heavy with L428M, S434N
light: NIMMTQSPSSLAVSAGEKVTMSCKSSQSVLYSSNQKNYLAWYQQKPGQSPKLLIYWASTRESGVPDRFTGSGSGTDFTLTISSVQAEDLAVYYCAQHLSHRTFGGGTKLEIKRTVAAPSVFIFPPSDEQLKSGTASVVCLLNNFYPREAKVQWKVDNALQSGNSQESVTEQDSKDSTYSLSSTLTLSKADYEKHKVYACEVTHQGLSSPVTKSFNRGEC
notes: BHL011 with three histidine substitutions in the murine variable regions; also called pH-dependent variant of BHL011
Kd (mouse C5): 3.49 nM
koff (mouse C5): 0.00102 s⁻¹
kon (mouse C5): 293000 M⁻¹ s⁻¹
